Source: PMC5605669, “Dimerization regulates both deaminase-dependent and deaminase-independent HIV-1 restriction by APOBEC3G” (Nature Communications, 2017)
Where a chain is given by its changes, count along the chain named. In names and notes the source's numbering stands.

B1: APOBEC3G, wild type (enzyme, human, UniProt Q9HC16 1-384, looked up)
chain: MKPHFRNTVERMYRDTFSYNFYNRPILSRRNTVWLCYEVKTKGPSRPPLDAKIFRGQVYSELKYHPEMRFFHWFSKWRKLHRDQEYEVTWYISWSPCTKCTRDMATFLAEDPKVTLTIFVARLYYFWDPDYQEALRSLCQKRDGPRATMKIMNYDEFQHCWSKFVYSQRELFEPWNNLPKYYILLHIMLGEILRHSMDPPTFTFNFNNEPWVRGRHETYLCYEVERMHNDTWVLLNQRRGFLCNQAPHKHGFLEGRHAELCFLDVIPFWKLDLDQDYRVTCFTSWSPCFSCAQEMAKFISKNKHVSLCIFTARIYDDQGRCQEGLRTLAEAGAKISIMTYSEFKHCWDTFVDHQGCPFQPWDGLDEHSQDLSGRLRAILQNQEN
B2: APOBEC3G R313A-D316A-D317A-Q318A (CTD mutant) (enzyme, human, UniProt Q9HC16 1-384, looked up)
chain: B1 chain with R313A, D316A, D317A, Q318A
notes: APOBEC3G (A3G), human, with R313A, D316A, D317A and Q318A in the C-terminal domain; The methods describe the making of A3G in general; also called RDDQ; RDDQ A3G; source: Sf9 cells (recombinant baculovirus), purified in the presence of RNase A
B3: APOBEC3G I314A-Y315A (CTD mutant) (enzyme, human, UniProt Q9HC16 1-384, looked up)
chain: B1 chain with I314A, Y315A
notes: APOBEC3G (A3G), human, with I314A and Y315A in the C-terminal domain; The methods describe the making of A3G in general; also called IY; IY A3G; source: Sf9 cells (recombinant baculovirus), purified in the presence of RNase A
B4: APOBEC3G F126A-W127A (NTD mutant) (enzyme, human, UniProt Q9HC16 1-384, looked up)
chain: B1 chain with F126A, W127A
notes: APOBEC3G (A3G), human, with F126A and W127A in the N-terminal domain; The methods describe the making of A3G in general; also called FW; FW A3G; source: Sf9 cells (recombinant baculovirus), purified in the presence of RNase A

Experiments:
[1] = target: the molecule itself; experiment: cell-based or functional assay
[2] = target: the molecule itself; experiment: AFM imaging; 70 nM A3G incubated 10 min with linearized m13 ssDNA in 10 mM Tris, 2.5 mM NaCl; deposited on APTES coated mica, imaged in liquid; monomers per cluster on ssDNA from cluster volume
[3] = target: the molecule itself; experiment: optical tweezers (single-molecule ssDNA extension); fraction of bound A3G that stays stably bound after washing with buffer, against incubation time (200 to 1000 s) at 50 nM; single exponential fit gives the oligomerization rate on ssDNA at 80 pN

Row | Protein | binding result [2] | further results
1 | B1 |  | deaminase activity on labeled 118-nt ssDNA after 3 min pre-incubation of 25 nM A3G with unlabeled 69-nt trap ssDNA (0.5 to 5 mM as printed), fold reduction (threefold to 13-fold) [1]: 13 fold
2 | B2 | binds | 
3 | B3 | binds | 
4 | B4 |  | fold reduction of oligomerization rate against WT [3]: 3 fold
